Source: US20250002610A1 (Genmab, published 2025)
Numbering of substitutions follows the chain as printed.

T1: His-tagged recombinant Cynomolgus FAPα (Acro Biosystems, Cat #FAP-C52H3-100ug) (cynomolgus monkey, UniProt A0A2K5VGF4 26-760)
T1 construct: Bought reagent; also called recombinant cynomolgus monkey FAPα; not shown: His tag of the vendor's construct (Acro Biosystems FAP-C52H3)
T1 sequence: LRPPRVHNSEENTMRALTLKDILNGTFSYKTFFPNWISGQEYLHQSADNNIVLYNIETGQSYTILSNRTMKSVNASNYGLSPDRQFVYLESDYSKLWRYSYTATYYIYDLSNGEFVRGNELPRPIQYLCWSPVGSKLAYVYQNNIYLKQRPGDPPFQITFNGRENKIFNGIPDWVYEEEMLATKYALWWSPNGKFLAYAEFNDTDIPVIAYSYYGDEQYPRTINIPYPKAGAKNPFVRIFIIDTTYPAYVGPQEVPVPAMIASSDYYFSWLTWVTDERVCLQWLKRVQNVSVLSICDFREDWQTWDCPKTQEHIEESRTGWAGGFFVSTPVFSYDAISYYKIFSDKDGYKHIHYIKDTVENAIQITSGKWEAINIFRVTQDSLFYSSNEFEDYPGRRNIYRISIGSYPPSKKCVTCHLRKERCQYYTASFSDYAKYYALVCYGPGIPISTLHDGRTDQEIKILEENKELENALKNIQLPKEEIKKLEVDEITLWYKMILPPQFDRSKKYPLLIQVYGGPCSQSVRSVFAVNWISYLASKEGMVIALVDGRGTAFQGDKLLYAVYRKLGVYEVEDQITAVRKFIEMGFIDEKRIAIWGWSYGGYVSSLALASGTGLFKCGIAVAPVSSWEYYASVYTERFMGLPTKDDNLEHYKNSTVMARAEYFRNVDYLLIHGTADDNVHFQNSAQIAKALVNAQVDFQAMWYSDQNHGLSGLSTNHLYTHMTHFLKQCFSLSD

T2: cynomolgus DR4MfECD-FcHisCtag (cynomolgus monkey)
T2 construct: also called recombinant cynomolgus monkey DR4
T2 chain: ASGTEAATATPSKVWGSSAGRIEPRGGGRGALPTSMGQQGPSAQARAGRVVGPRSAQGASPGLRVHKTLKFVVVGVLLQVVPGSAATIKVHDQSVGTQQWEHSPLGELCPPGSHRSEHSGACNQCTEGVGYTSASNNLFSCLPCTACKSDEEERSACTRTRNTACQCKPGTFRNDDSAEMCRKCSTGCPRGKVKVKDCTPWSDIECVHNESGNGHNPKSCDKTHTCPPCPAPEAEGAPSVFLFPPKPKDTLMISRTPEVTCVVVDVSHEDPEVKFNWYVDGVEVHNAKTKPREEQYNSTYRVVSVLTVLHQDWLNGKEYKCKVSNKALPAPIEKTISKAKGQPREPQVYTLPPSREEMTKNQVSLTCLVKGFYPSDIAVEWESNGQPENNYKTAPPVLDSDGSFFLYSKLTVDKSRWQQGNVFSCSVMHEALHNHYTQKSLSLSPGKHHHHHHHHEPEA

B1: BisG1-FAPα-FERL/DR4-FERR (bispecific antibody, human IgG1, kappa, lambda)
heavy 1: EVQLLESGGGLVQPGGSPRLSCEASGFTFSSYALSWVRQAPGKGLEWVSAISGSGGGRYYADSVKGRFTISRDNSKNTLFLQMNSLRAEDTAVYYCAKEGYSSSGTYWDHWGQGTLVTVSSASTKGPSVFPLAPSSKSTSGGTAALGCLVKDYFPEPVTVSWNSGALTSGVHTFPAVLQSSGLYSLSSVVTVPSSSLGTQTYICNVNHKPSNTKVDKRVEPKSCDKTHTCPPCPAPEFERGPSVFLFPPKPKDTLMISRTPEVTCVVVDVSHEDPEVKFNWYVDGVEVHNAKTKPREEQYNSTYRVVSVLTVLHQDWLNGKEYKCKVSNKALPAPIEKTISKAKGQPREPQVYTLPPSREEMTKNQVSLTCLVKGFYPSDIAVEWESNGQPENNYKTTPPVLDSDGSFLLYSKLTVDKSRWQQGNVFSCSVMHEALHNHYTQKSLSLSPG
light 1: AIQMTQSPSSVSASVGDRVTITCRASQGVSSWLAWYQQKPGRAPKLLIYVASTLQSGVPSRFSGSGSGTDFTLTINSLQPEDFATYYCQQANSFPPTFGQGTRLEMKRTVAAPSVFIFPPSDEQLKSGTASVVCLLNNFYPREAKVQWKVDNALQSGNSQESVTEQDSKDSTYSLSSTLTLSKADYEKHKVYACEVTHQGLSSPVTKSFNRGEC
heavy 2: QVQLQESGPGLVKPSGTLSLTCAVSGGSISSYSWWSWIRQPPGKGLEWIGELYHSGSTNYNPSLKSRVTISVDKSKNQFSLKLRSVTAADTAVYYCVRGVATIDYWGQGTLVTVSSASTKGPSVFPLAPSSKSTSGGTAALGCLVKDYFPEPVTVSWNSGALTSGVHTFPAVLQSSGLYSLSSVVTVPSSSLGTQTYICNVNHKPSNTKVDKRVEPKSCDKTHTCPPCPAPEFERGPSVFLFPPKPKDTLMISRTPEVTCVVVDVSHEDPEVKFNWYVDGVEVHNAKTKPREEQYNSTYRVVSVLTVLHQDWLNGKEYKCKVSNKALPAPIEKTISKAKGQPREPQVYTLPPSREEMTKNQVSLTCLVKGFYPSDIAVEWESNGQPENNYKTTPPVLDSDGSFFLYSRLTVDKSRWQQGNVFSCSVMHEALHNHYTQKSLSLSPG
light 2: QSALTQPPSASGSPGQSVTISCTGTSSDVGGYNFVSWYQQDPGKAPKLLIYEVTKRPSGVPDRFSGSKSGNTASLTVSGLQAEDEADYYCSSYAGSNNVMFGGGTKLTVLGQPKAAPSVTLFPPSSEELQANKATLVCLISDFYPGAVTVAWKADSSPVKAGVETTTPSKQSNNKYAASSYLSLTPEQWKSHRSYSCQVTHEGSTVEKTVAPTECS
notes: Human IgG1 bispecific made by controlled Fab-arm exchange of IgG1-FAPα-FERL and IgG1-DR4-FERR; monovalent for FAPα and for DR4; also called GEN1057
B2: BisG1-FAPα-FERL/b12-FERR (bispecific antibody, human IgG1, kappa)
heavy 1: B1 heavy 1
light 1: B1 light 1
heavy 2: QVQLVQSGAEVKKPGASVKVSCQASGYRFSNFVIHWVRQAPGQRFEWMGWINPYNGNKEFSAKFQDRVTFTADTSANTAYMELRSLRSADTAVYYCARVGPYSWDDSPQDNYYMDVWGKGTTVIVSSASTKGPSVFPLAPSSKSTSGGTAALGCLVKDYFPEPVTVSWNSGALTSGVHTFPAVLQSSGLYSLSSVVTVPSSSLGTQTYICNVNHKPSNTKVDKRVEPKSCDKTHTCPPCPAPEFERGPSVFLFPPKPKDTLMISRTPEVTCVVVDVSHEDPEVKFNWYVDGVEVHNAKTKPREEQYNSTYRVVSVLTVLHQDWLNGKEYKCKVSNKALPAPIEKTISKAKGQPREPQVYTLPPSREEMTKNQVSLTCLVKGFYPSDIAVEWESNGQPENNYKTTPPVLDSDGSFFLYSRLTVDKSRWQQGNVFSCSVMHEALHNHYTQKSLSLSPG
light 2: EIVLTQSPGTLSLSPGERATFSCRSSHSIRSRRVAWYQHKPGQAPRLVIHGVSNRASGISDRFSGSGSGTDFTLTITRVEPEDFALYYCQVYGASSYTFGQGTKLERKRTVAAPSVFIFPPSDEQLKSGTASVVCLLNNFYPREAKVQWKVDNALQSGNSQESVTEQDSKDSTYSLSSTLTLSKADYEKHKVYACEVTHQGLSSPVTKSFNRGEC
B3: BisG1-b12-FERL/DR4-FERR (bispecific antibody, human IgG1, kappa, lambda)
heavy 1: B2 heavy 2 with F415L, R419K
light 1: B2 light 2
heavy 2: B1 heavy 2
light 2: B1 light 2
notes: Fab-arm exchange of IgG1-b12-FERL and IgG1-DR4-FERR; also called bsIgG1-ctrl-FERLxDR4-FERR

Experiments:
[1] = target: T1, His-tagged recombinant Cynomolgus FAPα …; test: BLI (Octet), antigen immobilized on AR2G sensors, average of three experiments
Procedure: (§1) Experiments were carried out while shaking at 1,000 RPM at 30° C. Amine Reactive 2nd Generation (AR2G) biosensors (Sartorius, Cat #18-5092) were activated by reaction with 20 mM EDC (N-(3-Dimethylaminopropyl)-N′-ethylcarbodiimide hydrochloride) (Sigma-Aldrich, Cat #03449) and 10 mM s-NHS (N-hydroxysulfosuccinimide sodium salt) (Sigma-Aldrich, Cat #56485) for 300 s. The activated AR2G sensors were loaded with 2.5 μg/mL His-tagged recombinant Human FAPα (Acro Biosystems, Cat #FAP-H5244-100ug) in 10 mM Sodium Acetate pH 5.0 (Sartorius, Cat #18-1069) or 2.5 μg/mL His-tagged recombinant Cynomolgus FAPα (Acro Biosystems, Cat #FAP-C52H3-100ug) in 10 mM Sodium Acetate pH 5.0 for 600 s and quenched with 1 M ethanolamine pH 8.5 (Sartorius Cat #18-1071) for 300 s. After a baseline measurement in Sample Diluent (1000 s; Sartorius, Cat #18-1104), the association (100 s) and dissociation (4,000 s) of functionally monovalent antibody was determined using a concentration range of 0.78-800 nM with two-fold dilution steps in Sample Diluent. The molecular mass of the antibodies used for the calculations was calculated from the sequences.
The Y-axis was aligned to the last 10 s of the baseline; Interstep Correction alignment to dissociation and Savitzky-Golay filtering were applied. Data traces with a response <0.05 nm were excluded from analysis. […] The data were fitted with the 1:1 Global Full fit model using a window of interest for the association of 100 s and dissociation time set 4,000 s.

human DR4HsECD-FcHisCtag = target: T3, human DR4HsECD-FcHisCtag (human); test: BLI (Octet), antigen captured on anti-Penta-HIS sensors, average of three experiments
T3 construct: also called recombinant human DR4
Procedure: as §1
(§2) The binding affinity of BisG1-FAPα-FERL/DR4-FERR, BisG1-b12-FERL/DR4-FERR and control BisG1-FAPα-FERL/b12-FERR to recombinant human and cynomolgus monkey DR4 protein was determined using label-free biolayer interferometry on an Octet HTX instrument (Sartorius).
(§3) The protocol detailed in Example 5 was used with the following differences: anti-Penta-HIS biosensors (Sartorius, Cat #18-5120) were used; the sensors were preconditioned by exposure to 10 mM glycine (Sigma-Aldrich, Cat #15527) buffer pH 1.5 for 5 s, followed by neutralization in Sample Diluent (Sartorius, Cat #18-1104) for 5 s; both steps were repeated 2 times; the sensors were loaded with 50 nM human DR4HsECD-FcHisCtag (SEQ ID NO: 66), or cynomolgus DR4MfECD-FcHisCtag (SEQ ID NO: 67), for 600 s; the dissociation time was 1,000 s; The window of interest for the dissociation time was set at 100 s for the cynomolgus antigen and at 1,000 s for the human antigen.

[2] = target: T2, cynomolgus DR4MfECD-FcHisCtag; test: as above
Procedure: as §1, §2, §3

T3 sequence (chain, as listed by the source limits assumed): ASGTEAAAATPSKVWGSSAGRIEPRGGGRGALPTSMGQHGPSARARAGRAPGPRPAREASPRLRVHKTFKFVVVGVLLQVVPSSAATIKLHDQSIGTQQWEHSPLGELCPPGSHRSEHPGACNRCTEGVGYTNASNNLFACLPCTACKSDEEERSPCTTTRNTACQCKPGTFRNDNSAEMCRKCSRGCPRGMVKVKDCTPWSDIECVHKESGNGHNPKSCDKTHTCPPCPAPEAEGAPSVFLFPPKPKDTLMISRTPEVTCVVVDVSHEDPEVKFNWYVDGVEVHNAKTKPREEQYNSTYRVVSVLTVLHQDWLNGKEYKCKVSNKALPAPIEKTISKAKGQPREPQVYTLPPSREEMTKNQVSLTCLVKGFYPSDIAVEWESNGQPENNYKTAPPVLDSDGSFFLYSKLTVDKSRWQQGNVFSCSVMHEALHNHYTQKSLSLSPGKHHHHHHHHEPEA

| Binder | Kd [1] | koff [1] | kon [1] | Kd (human DR4HsECD-FcHisCtag) | koff (human DR4HsECD-FcHisCtag) | kon (human DR4HsECD-FcHisCtag) | Kd [2] | koff [2] | kon [2] |
| --- | --- | --- | --- | --- | --- | --- | --- | --- | --- |
| B1 | 0.037 nM | 2.8e-05 s⁻¹ | 770000 M⁻¹ s⁻¹ | 0.39 nM | 0.00012 s⁻¹ | 320000 M⁻¹ s⁻¹ | 290 nM | 0.008 s⁻¹ | 28000 M⁻¹ s⁻¹ |
| B2 | 0.034 nM | 2.5e-05 s⁻¹ | 750000 M⁻¹ s⁻¹ |  |  |  |  |  |  |
| B3 |  |  |  | 0.32 nM | 0.0001 s⁻¹ | 330000 M⁻¹ s⁻¹ | 260 nM | 0.0082 s⁻¹ | 31000 M⁻¹ s⁻¹ |
